Holding throughout (experiment): SPR (Biacore), FcγR over captured antibody; binding amount divided by that of IL6R-BF648/IL6R-L x 100
The target of assay [1] is T1, human FcγRIIIa type V (human, UniProt P08637 17-208, limits assumed).
T1 construct: also called FcgRIIIaV; FcγRIIIa(V)

Assay [2] deals with T2, human FcγRIIa type H (human, UniProt P12318 36-217).
T2 construct: also called FcgRIIaH; FcγRIIa(H)
T2 sequence: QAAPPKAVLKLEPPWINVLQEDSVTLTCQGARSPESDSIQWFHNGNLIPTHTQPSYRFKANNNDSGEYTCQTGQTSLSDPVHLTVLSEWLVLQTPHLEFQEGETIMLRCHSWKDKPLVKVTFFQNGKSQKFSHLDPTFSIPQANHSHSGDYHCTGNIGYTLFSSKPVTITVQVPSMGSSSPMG

Assay [3] deals with T3, human FcγRIIa type R (human, UniProt P12318 36-217).
T3 construct: also called FcgRIIaR; FcγRIIa(R)
T3 chain: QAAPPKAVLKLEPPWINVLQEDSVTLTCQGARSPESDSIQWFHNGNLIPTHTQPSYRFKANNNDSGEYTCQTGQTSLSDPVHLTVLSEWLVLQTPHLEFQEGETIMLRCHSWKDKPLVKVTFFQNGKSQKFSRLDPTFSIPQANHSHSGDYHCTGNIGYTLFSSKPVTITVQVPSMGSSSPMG

Assay [4] addresses T4, human FcγRIa (human, UniProt P12314 16-292, limits assumed).
T4 construct: also called FcgRIa; FcγRI (CD64)

The target of assay [5] is T5, human FcγRIIb (human, UniProt P31994 43-217, limits assumed).
T5 construct: also called FcgRIIb; FcγIIB
T5 sequence: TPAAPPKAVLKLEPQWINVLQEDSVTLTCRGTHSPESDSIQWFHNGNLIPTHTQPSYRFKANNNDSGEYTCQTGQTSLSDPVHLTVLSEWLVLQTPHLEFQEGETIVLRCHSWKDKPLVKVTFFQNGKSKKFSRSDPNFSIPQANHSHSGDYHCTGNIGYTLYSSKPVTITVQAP

T1 sequence (P08637 other isoform, or with tags, fused parts or gaps limits assumed): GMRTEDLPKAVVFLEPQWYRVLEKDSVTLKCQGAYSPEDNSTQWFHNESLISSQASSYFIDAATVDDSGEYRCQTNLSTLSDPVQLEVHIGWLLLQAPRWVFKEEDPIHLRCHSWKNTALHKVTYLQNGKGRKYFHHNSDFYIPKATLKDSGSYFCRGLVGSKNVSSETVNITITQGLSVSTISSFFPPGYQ
T4 sequence (P12314 16-292 limits assumed): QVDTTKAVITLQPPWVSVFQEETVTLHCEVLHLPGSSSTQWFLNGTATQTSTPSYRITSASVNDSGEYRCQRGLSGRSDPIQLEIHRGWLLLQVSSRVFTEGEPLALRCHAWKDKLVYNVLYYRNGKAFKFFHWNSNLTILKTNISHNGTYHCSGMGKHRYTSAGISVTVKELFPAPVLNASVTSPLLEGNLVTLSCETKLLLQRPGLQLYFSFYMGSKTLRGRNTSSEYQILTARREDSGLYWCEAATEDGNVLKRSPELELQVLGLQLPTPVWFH

B1: IL6R-BP131/IL6R-L (antibody, human IgG1, name in EU numbering)
heavy: QVQLQESGPGLVKPSETLSLTCAVSGHSISHDHAWSWVRQPPGEGLEWIGFISYSGITNYNPSLQGRVTISRDNSKNTLYLQMNSLRAEDTAVYYCARSLARTTAMDYWGEGTLVTVSSASTKGPSVFPLAPSSKSTSGGTAALGCLVKDYFPEPVTVSWNSGALTSGVHTFPAVLQSSGLYSLSSVVTVPSSSLGTQTYICNVNHKPSNTKVDKKVEPKSCDKTHTCPPCPAPDLLGDDSVFLFPPKPKDTLMISRTPEVTCVVVDVSHEDPEVKFNWYVDGVEVHNAKTKPREEQYNSTYRVVSVLTVLHQDWLNGKEYKCKVSNKALPKPIEKTISKAKGQPREPQVYTLPPSRDELTKNQVSLTCLVKGFYPSDIAVEWESNGQPENNYKTTPPVLDSDGSFFLYSKLTVDKSRWQQGNVFSCSVMHEALHNHYTQESLSLSP
light: DIQMTQSPSSLSASVGDRVTITCRASQDISSYLNWYQQKPGKAPKLLIYYTSRLHSGVPSRFSGSGSGTDFTFTISSLQPEDIATYYCQQGNTLPYTFGQGTKVEIK
notes: copies: 2 + 2
Consider B1, for which the relative binding activity is 118 relative (IL6R-BF648/IL6R-L = 100) in assay [1], 253 relative (IL6R-BF648/IL6R-L = 100) in assay [2], 364 relative (IL6R-BF648/IL6R-L = 100) in assay [3] and 33 relative (IL6R-BF648/IL6R-L = 100) in assay [4].

B2: IL6R-BP178/IL6R-L (antibody, human IgG1, name in EU numbering)
heavy: QVQLQESGPGLVKPSETLSLTCAVSGHSISHDHAWSWVRQPPGEGLEWIGFISYSGITNYNPSLQGRVTISRDNSKNTLYLQMNSLRAEDTAVYYCARSLARTTAMDYWGEGTLVTVSSASTKGPSVFPLAPSSKSTSGGTAALGCLVKDYFPEPVTVSWNSGALTSGVHTFPAVLQSSGLYSLSSVVTVPSSSLGTQTYICNVNHKPSNTKVDKKVEPKSCDKTHTCPPCPAPDLLGDDSVFLFPPKPKDTLMISRTPEVTCVVVDVSHEDGEVKFNWYVDGVEVHNAKTKPREEQYNSTYRVVSVLTVLHQDWLNGKEYKCKVSNKALPKPIEKTISKAKGQPREPQVYTLPPSRDELTKNQVSLTCLVKGFYPSDIAVEWESNGQPENNYKTTPPVLDSDGSFFLYSKLTVDKSRWQQGNVFSCSVMHEALHNHYTQESLSLSP
light: DIQMTQSPSSLSASVGDRVTITCRASQDISSYLNWYQQKPGKAPKLLIYYTSRLHSGVPSRFSGSGSGTDFTFTISSLQPEDIATYYCQQGNTLPYTFGQGTKVEIK
notes: the list runs over r43 and r44; copies: 2 + 2
For the molecule B2, the relative binding activity is 259 relative (IL6R-BF648/IL6R-L = 100) in assay [2], 179 relative (IL6R-BF648/IL6R-L = 100) in assay [5], 653 relative (IL6R-BF648/IL6R-L = 100) in assay [3] and 51 relative (IL6R-BF648/IL6R-L = 100) in assay [4].

B3: IL6R-BP181/IL6R-L (antibody, human IgG1, name in EU numbering)
heavy: QVQLQESGPGLVKPSETLSLTCAVSGHSISHDHAWSWVRQPPGEGLEWIGFISYSGITNYNPSLQGRVTISRDNSKNTLYLQMNSLRAEDTAVYYCARSLARTTAMDYWGEGTLVTVSSASTKGPSVFPLAPSSKSTSGGTAALGCLVKDYFPEPVTVSWNSGALTSGVHTFPAVLQSSGLYSLSSVVTVPSSSLGTQTYICNVNHKPSNTKVDKKVEPKSCDKTHTCPPCPAPDLLGGDSVFLFPPKPKDTLMISRTPEVTCVVVDVSHEDGEVKFNWYVDGVEVHNAKTKPREEQYNSTYRVVSVLTVLHQDWLNGKEYKCKVSNAALPKPIEKTISKAKGQPREPQVYTLPPSRDELTKNQVSLTCLVKGFYPSDIAVEWESNGQPENNYKTTPPVLDSDGSFFLYSKLTVDKSRWQQGNVFSCSVMHEALHNHYTQESLSLSP
light: DIQMTQSPSSLSASVGDRVTITCRASQDISSYLNWYQQKPGKAPKLLIYYTSRLHSGVPSRFSGSGSGTDFTFTISSLQPEDIATYYCQQGNTLPYTFGQGTKVEIK
notes: the list runs over r48 and r49; copies: 2 + 2
On to B3, for which the relative binding activity in assay [1] is 122 relative (IL6R-BF648/IL6R-L = 100); in assay [2] it was 150 relative (IL6R-BF648/IL6R-L = 100); in assay [3], 362 relative (IL6R-BF648/IL6R-L = 100); in assay [4], 108 relative (IL6R-BF648/IL6R-L = 100).

B4: IL6R-BP151/IL6R-L (antibody, human IgG1, name in EU numbering)
heavy: QVQLQESGPGLVKPSETLSLTCAVSGHSISHDHAWSWVRQPPGEGLEWIGFISYSGITNYNPSLQGRVTISRDNSKNTLYLQMNSLRAEDTAVYYCARSLARTTAMDYWGEGTLVTVSSASTKGPSVFPLAPSSKSTSGGTAALGCLVKDYFPEPVTVSWNSGALTSGVHTFPAVLQSSGLYSLSSVVTVPSSSLGTQTYICNVNHKPSNTKVDKKVEPKSCDKTHTCPPCPAPDYLGDDSVFLFPPKPKDTLMISRTPEVTCVVVDVSHEDPEVKFNWYVDGVEVHNAKTKPREEQYNSTYRVVSVLTVLHQDWLNGKEYKCKVSNAALPRPIEKTISKAKGQPREPQVYTLPPSRDELTKNQVSLTCLVKGFYPSDIAVEWESNGQPENNYKTTPPVLDSDGSFFLYSKLTVDKSRWQQGNVFSCSVMHEALHNHYTQESLSLSP
light: DIQMTQSPSSLSASVGDRVTITCRASQDISSYLNWYQQKPGKAPKLLIYYTSRLHSGVPSRFSGSGSGTDFTFTISSLQPEDIATYYCQQGNTLPYTFGQGTKVEIK
notes: the list runs over r36 and r37; copies: 2 + 2
Regarding B4, the relative binding activity in assay [1] is 221 relative (IL6R-BF648/IL6R-L = 100); in assay [2], 621 relative (IL6R-BF648/IL6R-L = 100); in assay [3], 705 relative (IL6R-BF648/IL6R-L = 100); in assay [4] it was 39 relative (IL6R-BF648/IL6R-L = 100).

B5: IL6R-BP132/IL6R-L (antibody, human IgG1, name in EU numbering)
heavy: QVQLQESGPGLVKPSETLSLTCAVSGHSISHDHAWSWVRQPPGEGLEWIGFISYSGITNYNPSLQGRVTISRDNSKNTLYLQMNSLRAEDTAVYYCARSLARTTAMDYWGEGTLVTVSSASTKGPSVFPLAPSSKSTSGGTAALGCLVKDYFPEPVTVSWNSGALTSGVHTFPAVLQSSGLYSLSSVVTVPSSSLGTQTYICNVNHKPSNTKVDKKVEPKSCDKTHTCPPCPAPDLLGGDSVFLFPPKPKDTLMISRTPEVTCVVVDVSHEDPEVKFNWYVDGVEVHNAKTKPREEQYNSTYRVVSVLTVLHQDWLNGKEYKCKVSNAALPKPIEKTISKAKGQPREPQVYTLPPSRDELTKNQVSLTCLVKGFYPSDIAVEWESNGQPENNYKTTPPVLDSDGSFFLYSKLTVDKSRWQQGNVFSCSVMHEALHNHYTQESLSLSP
light: DIQMTQSPSSLSASVGDRVTITCRASQDISSYLNWYQQKPGKAPKLLIYYTSRLHSGVPSRFSGSGSGTDFTFTISSLQPEDIATYYCQQGNTLPYTFGQGTKVEIK
notes: copies: 2 + 2
On to B5, for which the relative binding activity was 120 relative (IL6R-BF648/IL6R-L = 100) in assay [1], 130 relative (IL6R-BF648/IL6R-L = 100) in assay [2], 150 relative (IL6R-BF648/IL6R-L = 100) in assay [5] and 191 relative (IL6R-BF648/IL6R-L = 100) in assay [3].

B6: IL6R-BP176/IL6R-L (antibody, human IgG1, name in EU numbering)
heavy: QVQLQESGPGLVKPSETLSLTCAVSGHSISHDHAWSWVRQPPGEGLEWIGFISYSGITNYNPSLQGRVTISRDNSKNTLYLQMNSLRAEDTAVYYCARSLARTTAMDYWGEGTLVTVSSASTKGPSVFPLAPSSKSTSGGTAALGCLVKDYFPEPVTVSWNSGALTSGVHTFPAVLQSSGLYSLSSVVTVPSSSLGTQTYICNVNHKPSNTKVDKKVEPKSCDKTHTCPPCPAPDLLGGDSVFLFPPKPKDTLMISRTPEVTCVVVDVSHEDPEVKFNWYVDGVEVHNAKTKPREEQYNSTYRVVSVLTVLHQDWLNGKEYKCKVSNDALPKPIEKTISKAKGQPREPQVYTLPPSRDELTKNQVSLTCLVKGFYPSDIAVEWESNGQPENNYKTTPPVLDSDGSFFLYSKLTVDKSRWQQGNVFSCSVMHEALHNHYTQESLSLSP
light: DIQMTQSPSSLSASVGDRVTITCRASQDISSYLNWYQQKPGKAPKLLIYYTSRLHSGVPSRFSGSGSGTDFTFTISSLQPEDIATYYCQQGNTLPYTFGQGTKVEIK
notes: copies: 2 + 2
Take B6: the relative binding activity in assay [2] is 128 relative (IL6R-BF648/IL6R-L = 100); in assay [5], 147 relative (IL6R-BF648/IL6R-L = 100); in assay [3] it was 201 relative (IL6R-BF648/IL6R-L = 100); in assay [4] it was 102 relative (IL6R-BF648/IL6R-L = 100).

(Values after patent US20230257470A1 (published 2023).)
